Patent publication US20250388666A1 (BRIGHAM AND WOMEN S HOSPITAL, published 2025)
Positions count from the first letter of the chain named. In names and notes the source's numbering stands. Several values for one entry are separate records, joined by “and”; a condition that tells them apart may be missing. Equal values may be shown once.

T1: CEACAM1 (Sino Biological) (human, UniProt P13688 35-428, limits assumed)
T1 construct: may be the same as CEACAM1-HIS; also called hCEACAM1; biotinylated soluble CEACAM1
T1 sequence: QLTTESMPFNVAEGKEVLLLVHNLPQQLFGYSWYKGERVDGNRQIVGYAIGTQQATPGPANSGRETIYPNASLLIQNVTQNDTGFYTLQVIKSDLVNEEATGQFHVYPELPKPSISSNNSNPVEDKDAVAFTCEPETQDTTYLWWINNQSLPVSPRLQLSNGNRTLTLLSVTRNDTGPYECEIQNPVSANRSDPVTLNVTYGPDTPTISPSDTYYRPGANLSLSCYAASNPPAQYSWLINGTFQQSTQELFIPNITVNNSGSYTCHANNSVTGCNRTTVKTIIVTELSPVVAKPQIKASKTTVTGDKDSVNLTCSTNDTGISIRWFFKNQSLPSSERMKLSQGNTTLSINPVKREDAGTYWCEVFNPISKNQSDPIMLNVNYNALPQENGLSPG

B1: He13/L4 #1 (antibody, IgG4, V domains shown)
VH: EVQLLESGGGLVQPGGSLRLSCAASGFSFSDYYLYWVRQAPGKGLEWVATISVGGGQTSYADSVKGRFTISRDNSKNTLYLQMNSLRAEDTAMYYCTRGLYYGPSWLAYWGQGTLVTVSS
VL: DIVMTQSPDSLAVSLGERATINCKSSQSLLNSANQKNYLAWYQQKPGQPPKLLIYFASTRESGVPDRFSGSGSGTDFTLTISSLQAEDVAVYYCQSHFPYYYTFGGGTKVEIK
notes: IgG4 S241P, kappa
B2: He13/L4#2 (antibody, IgG4, V domains shown)
VH: B1 VH
VL: B1 VL with F98Y, Y101P
notes: IgG4 S241P, kappa
B3: He13/L5 (antibody, IgG4, V domains shown)
VH: B1 VH
VL: B1 VL with F98Y, Y100F, Y101A, Y102F
notes: IgG4 S241P, kappa
B4: He13/L6 (antibody, IgG4, V domains shown)
VH: B1 VH
VL: B1 VL with F98Y, Y100F, Y101S, Y102F
notes: IgG4 S241P, kappa
B5: He13/L16 (antibody, IgG4, V domains shown)
VH: B1 VH
VL: B1 VL with F98Y, Y101P, Y102F
notes: IgG4 S241P, kappa
B6: He13/L17 (antibody, IgG4, V domains shown)
VH: B1 VH
VL: B1 VL with F98Y, Y101P
notes: IgG4 S241P, kappa
B7: He13/L18 (antibody, IgG4, V domains shown)
VH: B1 VH
VL: B1 VL with Y101P, Y102F
notes: IgG4 S241P, kappa
B8: He13/L19 (antibody, IgG4, V domains shown)
VH: B1 VH
VL: B1 VL with F98I, P99Y, Y100P, Y101N, Y102F
notes: IgG4 S241P, kappa
B9: He13/L20 (antibody, IgG4, V domains shown)
VH: B1 VH
VL: B1 VL with Y101P, Y102L
notes: IgG4 S241P, kappa
B10: He13/Parent VL (antibody, IgG4, V domains shown)
VH: B1 VH
VL: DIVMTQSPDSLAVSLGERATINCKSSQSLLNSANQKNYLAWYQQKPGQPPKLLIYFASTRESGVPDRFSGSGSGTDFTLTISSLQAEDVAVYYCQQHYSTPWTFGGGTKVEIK
notes: IgG4 S241P, kappa
B11: He14/L2 (antibody, IgG4, V domains shown)
VH: B1 VH with L107V
VL: B1 VL with F98Y, Y100F, Y101P
notes: IgG4 S241P, kappa
B12: He14/L3 (antibody, IgG4, V domains shown)
VH: B1 VH with L107V
VL: B1 VL with Y100F, Y101P, Y102F
notes: IgG4 S241P, kappa
B13: He14/L4 #1 (antibody, IgG4, V domains shown)
VH: B1 VH with L107V
VL: B1 VL
notes: IgG4 S241P, kappa
B14: He14/L4#2 (antibody, IgG4, V domains shown)
VH: B1 VH with L107V
VL: B1 VL with F98Y, Y101P
notes: IgG4 S241P, kappa
B15: He14/L5 (antibody, IgG4, V domains shown)
VH: B1 VH with L107V
VL: B1 VL with F98Y, Y100F, Y101A, Y102F
notes: IgG4 S241P, kappa
B16: He14/L6 (antibody, IgG4, V domains shown)
VH: B1 VH with L107V
VL: B1 VL with F98Y, Y100F, Y101S, Y102F
notes: IgG4 S241P, kappa

Target: T1, CEACAM1 (Sino Biological)
Test: SPR single-cycle
Method in brief: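 Humanized affinity-matured IgGs from crude supernatants captured on Protein A to ~100 RU, with CEACAM1 analyte injected at 25–100 nM (three-point, two-fold) in HBS-P+ without regeneration. 200 s association per injection, 300 s single dissociation; reference-channel and blank subtracted.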

Binder | Kd | fold better than Parent (KD)
B1 | 115 nM | 1.38 fold
B2 | 289 nM | 1.91 fold
B3 | 95 nM | 1.68 fold
B4 | 105 nM | 1.51 fold
B5 | 105 nM | 1.51 fold
B6 | 372 nM and 159 nM | 
B7 | 103 nM | 1.54 fold
B8 | 129 nM | 1.23 fold
B9 | 109 nM | 1.46 fold
B10 | 91 nM | 1.74 fold
B11 | 102 nM | 1.56 fold
B12 | 107 nM | 1.49 fold
B13 | 93 nM | 1.7 fold
B14 | 396 nM | 1.39 fold
B15 | 102 nM | 1.56 fold
B16 | 111 nM | 1.43 fold
